Measurements: patent US20150337031A1 (CELYAD S A, published 2015)

Key:
[1] = molecular target: T1, 13 amino acid sequence from human MEF2C (SEQ ID NO: 2), GNPNLLPLAHPSL (human); test: SPR, BIAcore T200, calculated as the inverse of Kd
T1 construct: Synthetic peptide (GenScript); Coated on the plate in ELISA, injected over the immobilised antibody in Biacore; also called wild-type peptide; antigen peptide
T1 peptide: GNPNLLPLAHPSL
Experimental: (§1) Affinity of the antibody for the peptide was measured by using BIAcoreT200. After covalent coupling of the antibody onto the Series S Sensor Chip CM5, different concentrations (0.078, 0.781, 1.563, 3.125 and 6.250 μM) of peptide were injected serially over the antibody and blank flow cell at a flow rate of 30 μl/min. Association and dissociation phases were monitored for 30 and 150 seconds, respectively. Peptide with the concentration of 6.250 μM was set as repetition. The antibody surface was regenerated with 10 mM Glycine-HCl, pH2.0, 30 s injections 1 time.
(§2) About 10000 RU of antibody was immobilized on the sensor chip via primary amine groups. Binding data was processed, double referenced with response from blank injections, and fit to a 1:1 interaction model using the BIAcore T200 evaluation software.

[2] = molecular target: T2, alanine scanning mutant of the MEF2C peptide of SEQ ID NO: 2, asparagine at position 2 replaced by alanine (human); test: indirect ELISA on coated alanine mutant peptides (FIG. 7)
T2 construct: Member of the alanine scanning peptide library; also called mutation at peptide position 2
T2 peptide: GAPNLLPLAHPSL
Experimental: (§3) ELISA was performed to map the epitope of the test antibody. The peptides were coated in 96-well microtiter plates at 4° C. for 16 h. The plates were then blocked with 5% MPBS at 37° C. for 2 h. After washed with PBS-T, 100 μl target/control antibody (0.5 μg/ml) was added and incubated at 37° C. for 2 h. The plates were washed with PBS-T and incubated with 100 μl of 0.1 μg/ml goat anti-mouse IgG (H+L) at 37° C. for 1 h. The plates were washed with PBS-T and incubated with rabbit anti goat IgG (H+L) [HRP] at 37° C. for 1 h. After washing the plate with PBS-T, the color was developed with 100 μl TMB substrate for 10 minutes. The reaction was stopped by adding 100 μl of 1 M HCl and the absorbance was measured at 450 nm using a spectrometer. […] A non-coated well was set as blank control and the peptide library incubated with the detection antibodies only was set as the negative control.
(§4) Thirteen mutant peptides were numbered in numerical order and their binding activity with target/control antibodies were determined by indirect ELISA. The non-specific binding between the peptide, the target antibody and rabbit anti-goat IgG [HRP] was determined. The non-specific binding between the peptide, goat anti-mouse IgG and rabbit anti-goat IgG [HRP] was determined as well.

[3] = molecular target: T3, alanine scanning mutant of the MEF2C peptide of SEQ ID NO: 2, proline at position 3 replaced by alanine (human); test: as above
T3 construct: Member of the alanine scanning peptide library; also called mutation at peptide position 3
T3 peptide: GNANLLPLAHPSL
Experimental: as §3, §4

[4] = molecular target: T4, alanine scanning mutant of the MEF2C peptide of SEQ ID NO: 2, asparagine at position 4 replaced by alanine (human); test: as above
T4 construct: Member of the alanine scanning peptide library; also called mutation at peptide position 4
T4 peptide: GNPALLPLAHPSL
Experimental: as §3, §4

[5] = molecular target: T5, alanine scanning mutant of the MEF2C peptide of SEQ ID NO: 2, leucine at position 5 replaced by alanine (human); test: as above
T5 construct: Member of the alanine scanning peptide library; also called mutation at peptide position 5
T5 peptide: GNPNALPLAHPSL
Experimental: as §3, §4

[6] = molecular target: T6, Mutated peptide on Aa H (10th position); test: indirect ELISA on coated peptide, antibody at 0.5 µg/ml, OD450
T6 peptide: GNPNLLPLAAPSL
Experimental: as §3, §4

[7] = molecular target: T7, Mutated peptide on Aa P (11th position); test: as above
T7 peptide: GNPNLLPLAHASL
Experimental: as §3, §4

[8] = molecular target: T8, Mutated peptide on Aa L (13th position); test: as above
T8 peptide: GNPNLLPLAHPSA
Experimental: as §3, §4

[9] = molecular target: T1, 13 amino acid sequence from human MEF2C …; test: SPR, BIAcore T200, antibody coupled to CM5 chip, peptide injected, 1:1 model
Experimental: as §1, §2

[10] = molecular target: T9, alanine scanning mutant of the MEF2C peptide of SEQ ID NO: 2, proline at position 7 replaced by alanine (human); test: direct ELISA, relative quantification against a wild-type peptide standard curve (FIG. 8)
T9 construct: Member of the alanine scanning peptide library; also called mutation of the seventh residue; P7
T9 peptide: GNPNLLALAHPSL
Experimental: as §3
(§5) In addition to the alanine scanning, a relative quantification of binding was performed. Each of the mutated peptides was assayed in direct ELISA according to the procedures described above and compared to a standard curve performed with the wild-type peptide. Relative binding quantification was then performed as described previously. […] Therefore, considering the combination of the data obtained in FIGS. 7 and 8 an epitope target of the anti-MEF2C mAb is the following amino acid sequence: […]

[11] = molecular target: T10, alanine scanning mutant of the MEF2C peptide of SEQ ID NO: 2, glycine at position 1 replaced by alanine (human); test: as above
T10 construct: Member of the alanine scanning peptide library synthesised by GenScript; also called mutation of the first residue; G1
T10 peptide: ANPNLLPLAHPSL
Experimental: as §3, §5

[12] = molecular target: T2, alanine scanning mutant of the MEF2C …; test: as above
Experimental: as §3, §5

[13] = molecular target: T3, alanine scanning mutant of the MEF2C …; test: as above
Experimental: as §3, §5

[14] = molecular target: T4, alanine scanning mutant of the MEF2C …; test: as above
Experimental: as §3, §5

[15] = molecular target: T5, alanine scanning mutant of the MEF2C …; test: as above
Experimental: as §3, §5

[16] = molecular target: T11, Mutated peptide on Aa L (6th position); test: ELISA on coated mutant peptide, relative quantification against a standard curve of the wild-type peptide
T11 peptide: GNPNLAPLAHPSL
Experimental: as §3, §5

[17] = molecular target: T12, Mutated peptide on Aa L (8th position); test: as above
T12 peptide: GNPNLLPAAHPSL
Experimental: as §3, §5

B1: anti-MEF2C monoclonal antibody produced by the hybridoma cell line deposited with BCCM/LMBP under Accession No. LMBP 9949CB (antibody, V domains shown)
VH: EVQLQQSGPELVKPGASVKISCKASAYSFTGYFMNWVKQSHGKSLEWIGRINPYNGNTFYNQNFKGKATLTVDRSSSTAHMQILSLTSEDSTVYYCGREGATGAMDYWGQGTSVTVLP
VL: DVVMTQTPLSLPVSLGDQASISCRSSQSLVHSNGDTYLHWYLQMPGQSPRLLIYKVSNRFSGVPDRFSGSGSGTDFTLKISRVEAEDLGVYFCSQSTHVPPTFGGGTKLEIK
notes: IgG from a mouse hybridoma (detected with anti-mouse IgG); also called anti-MEF2C mAb; α MEF2C
- Ka [1]: 6.37e+06 M⁻¹
- binding result [2]: no binding (tested: 0.5 µg/ml antibody)
- binding result [3]: no binding (tested: 0.5 µg/ml antibody)
- binding result [4]: no binding (tested: 0.5 µg/ml antibody)
- binding result [5]: no binding (tested: 0.5 µg/ml antibody)
- binding result [6]: binds
- binding result [7]: binds
- binding result [8]: binds
- Kd [9]: 157 nM
- koff [9]: 0.00367 s⁻¹
- kon [9]: 23400 M⁻¹ s⁻¹
- loss of binding relative to the wild-type peptide [10]: 96.4%
- loss of binding relative to the wild-type peptide [11]: 92.9%
- decrease of the binding relative to the wild-type peptide [12]: > 99%
- decrease of the binding relative to the wild-type peptide [13]: > 99%
- decrease of the binding relative to the wild-type peptide [14]: > 99%
- decrease of the binding relative to the wild-type peptide [15]: > 99%
- binding result [16]: binds
- binding result [17]: binds
